Laboratory results: paper PMC8175722
One block for each molecule: values may come before it.

Key:
[1] = biological target: DC-SIGN-HA (DC-SIGN fused to the HA epitope tag) (UniProt Q9NNX6); assay: SEC; analytical gel filtration of recombinant DC-SIGN-Fc and DC-SIGN-HA; data not shown; the high Stokes radius prevented a more accurate measurement of molecular mass
[2] = biological target: mannosylated surface IgM (sIgM-Mann) of the FL-derived cell line WSU-FSCCL (human (endogenous in WSU-FSCCL)) (UniProt P01871)
Sequence of UniProt P01871 (P01871 whole entry, looked up, the tested form may be a part): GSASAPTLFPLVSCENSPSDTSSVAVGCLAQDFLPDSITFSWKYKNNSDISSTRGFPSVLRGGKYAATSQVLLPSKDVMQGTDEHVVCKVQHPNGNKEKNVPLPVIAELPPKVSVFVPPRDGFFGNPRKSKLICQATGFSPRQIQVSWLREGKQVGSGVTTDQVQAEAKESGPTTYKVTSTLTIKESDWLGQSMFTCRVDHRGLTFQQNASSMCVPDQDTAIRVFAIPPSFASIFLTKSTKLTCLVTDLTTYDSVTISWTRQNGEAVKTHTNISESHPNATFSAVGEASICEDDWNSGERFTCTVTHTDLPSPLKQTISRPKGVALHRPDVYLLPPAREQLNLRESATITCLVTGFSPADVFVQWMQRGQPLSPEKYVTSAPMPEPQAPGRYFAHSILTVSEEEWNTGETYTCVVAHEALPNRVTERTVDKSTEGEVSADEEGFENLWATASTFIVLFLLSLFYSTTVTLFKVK

[3] = biological target: mannosylated surface IgM (sIgM-Mann) of the FL-derived cell line WSU-FSCCL (human (endogenous in WSU-FSCCL)) (UniProt P01871); remark: listed apart in the source
[4] = biological target: T1, DC-SIGN-Fc (recombinant DC-SIGN fused to Fc), Q9NNX6; assay: SEC; analytical gel filtration of recombinant DC-SIGN-Fc and DC-SIGN-HA; data not shown; the high Stokes radius prevented a more accurate measurement of molecular mass; conditions: remark: other sources report otherwise
T1 chain: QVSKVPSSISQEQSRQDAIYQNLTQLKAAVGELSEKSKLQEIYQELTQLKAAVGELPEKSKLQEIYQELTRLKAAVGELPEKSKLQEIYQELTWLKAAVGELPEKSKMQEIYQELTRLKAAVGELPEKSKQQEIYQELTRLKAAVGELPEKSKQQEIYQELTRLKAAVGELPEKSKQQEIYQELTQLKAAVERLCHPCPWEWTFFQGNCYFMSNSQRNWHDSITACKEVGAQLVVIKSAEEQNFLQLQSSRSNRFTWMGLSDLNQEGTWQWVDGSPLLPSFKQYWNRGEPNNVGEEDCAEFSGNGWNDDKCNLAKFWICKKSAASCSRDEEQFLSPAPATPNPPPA

- stoichiometry N [1]: > 4
- inhibition of the anti-IgM-induced iCa2+ flux in WSU-FSCCL cells after pre-exposure to DC-SIGN-HA [2]: 50%
Molecule: DC-SIGN-HA (DC-SIGN fused to the HA epitope tag) (from UniProt Q9NNX6 1-404) (natural protein)

- recovery of the anti-IgM-induced iCa2+ response in WSU-FSCCL cells after removal of pre-bound DC-SIGN-Fc with mannan (15 or 30 min at 37 °C) [3]: 50%
- inhibition of the anti-IgM-induced iCa2+ flux in WSU-FSCCL cells after pre-exposure to DC-SIGN-Fc [2]: 80%
Molecule: DC-SIGN-Fc (recombinant DC-SIGN fused to Fc) (from UniProt Q9NNX6 59-404) (Fc fusion)

- stoichiometry N [4]: > 4
B1: DC-SIGN-Fc (recombinant DC-SIGN fused to Fc), Q9NNX6 59-404 (Fc fusion)
chain: QVSKVPSSISQEQSRQDAIYQNLTQLKAAVGELSEKSKLQEIYQELTQLKAAVGELPEKSKLQEIYQELTRLKAAVGELPEKSKLQEIYQELTWLKAAVGELPEKSKMQEIYQELTRLKAAVGELPEKSKQQEIYQELTRLKAAVGELPEKSKQQEIYQELTRLKAAVGELPEKSKQQEIYQELTQLKAAVERLCHPCPWEWTFFQGNCYFMSNSQRNWHDSITACKEVGAQLVVIKSAEEQNFLQLQSSRSNRFTWMGLSDLNQEGTWQWVDGSPLLPSFKQYWNRGEPNNVGEEDCAEFSGNGWNDDKCNLAKFWICKKSAASCSRDEEQFLSPAPATPNPPPA
